Article PMC9911311

Target: Adeno-associated virus type 2 (AAV2) capsid viral protein VP3 (adeno-associated virus type 2)
Test: cryo-EM structure

Adeno-associated virus type 2 (AAV2) capsid viral protein VP3 (natural protein)
stoichiometry N: 60
